Among the data in paper PMC7380489 are stoichiometry N values, retold here.

This assay has as its target human TRIM28 N-terminal RBCC domain (human). As to the kind of experiment: SEC-MALS + other: SEC-SAXS + AUC.

What is called stoichiometry N is a count of units in the complex or per binding partner.

Consider “human TRIM28 N-terminal RBCC domain (domain or fragment)”, for which the stoichiometry N stood at 3.
